Measured values: patent publication US20220306733A1 (ITEOS BELGUIM, published 2022)

T1: mouse TIGIT on cells (Jurkat-mTIGIT) (mouse, UniProt P86176 29-249)
T1 construct: whole, on cells
T1 sequence (looked up): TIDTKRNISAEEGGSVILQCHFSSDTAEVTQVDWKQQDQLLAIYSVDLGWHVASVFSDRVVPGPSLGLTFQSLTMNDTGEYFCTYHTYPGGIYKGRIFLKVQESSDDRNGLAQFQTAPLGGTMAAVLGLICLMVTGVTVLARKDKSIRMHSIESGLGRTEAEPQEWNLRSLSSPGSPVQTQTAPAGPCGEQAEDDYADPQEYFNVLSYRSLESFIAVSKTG

T2: human TIGIT on cells (Jurkat-hTIGIT, human primary T cells) (human, UniProt Q495A1 22-244)
T2 construct: whole, on cells; The cell type is named in each row's assay; also called membrane expressed human TIGIT
T2 sequence (looked up): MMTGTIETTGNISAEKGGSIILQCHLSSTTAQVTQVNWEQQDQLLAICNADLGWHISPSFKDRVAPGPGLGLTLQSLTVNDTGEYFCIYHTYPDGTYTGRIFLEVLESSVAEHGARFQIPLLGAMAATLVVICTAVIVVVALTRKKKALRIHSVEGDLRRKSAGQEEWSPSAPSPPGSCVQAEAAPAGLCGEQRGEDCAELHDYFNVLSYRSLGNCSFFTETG


Tests used:
[1] = molecular target: T1, mouse TIGIT on cells (Jurkat-mTIGIT); assay: flow cytometry on Jurkat-mTIGIT, 100 nM antibody, vs untransfected Jurkat
Procedure: (§1) Antibodies were incubated with the cells for 20 min at 4° C. in FACS buffer. […] Geometric mean fluorecence intensity was analysed using LSR BD Fortessa. Cell binding was recorded as the median florescence intensity of PE on the transfected line compared to the un-transfected line for each antibody (Table 3).

[2] = molecular target: T2, human TIGIT on cells (Jurkat-hTIGIT, …); assay: flow cytometry on Jurkat-hTIGIT, 100 nM antibody, vs untransfected Jurkat
Procedure: as §1

[3] = molecular target: T2, human TIGIT on cells (Jurkat-hTIGIT, …); assay: cell-based or functional assay

Cell binding FON (Fold Over Negative) [1]	Cell binding FON (Fold Over Negative) [2]	luciferase induction over isotype control (fold change), Jurkat-hTIGIT + CHO-TCR-CD155 bioassay, 133 nM antibody [3]	Binder
218 fold over negative	146 fold over negative	2.66 fold	anti-TIGIT antibody clone 26521 (antibody, V domains shown, Naive parent clone, VH1-69; human IgG; Fab for 'Fab KD' columns) VH: QVQLVQSGAEVKKPGSSVKVSCKASGGTFSSYAISWVRQAPGQGLEWMGGIIPIFGTANYAQKFQGRVTITADESTSTAYMELSSLRSEDTAVYYCARLHLGSSAYYGMDVWGQGTTVTVSS VL: DIQMTQSPSSLSASVGDRVTITCRASQSISSYLNWYQQKPGKAPKLLIYAASSLQSGVPSRFSGSGSGTDFTLTISSLQPEDFATYYCQQRYVFPPTFGGGTKVEIK
406 fold over negative	156 fold over negative	3.26 fold	anti-TIGIT antibody clone 29513 (antibody, V domains shown, human IgG; Fab for 'Fab KD' columns) VH: QVQLVQSGAEVKKPGSSVKVSCKASGGTFQNYAISWVRQAPGQGLEWMGVIVPIFGTANYAQKFQGRVTVTADESTSTAYMELSSLRSEDTAVYYCARLHLGQKAYYGMDVWGQGTTVTVSS VL: DIQMTQSPSSLSASVGDRVTITCRASQSISSYLNWYQQKPGKAPKLLIYAASSLQSGVPSRFSGSGSGTDFTLTISSLQPEDFATYYCQQRYVFPPTFGGGTKVEIK
	680 fold over negative		anti-TIGIT antibody clone 32919 (antibody, V domains shown, L1/L2/L3 optimised from 31288; human IgG) VH: QLQLQESGPGLVKPSETLSLTCTVSGGSISSGSYYLAWIRQPPGKGLEWIGSIFRSGSTYYNPSLESRVTISVDTSKNQFSLKLSSVTAADTAVYYCAIEGANFKDFGYVAFDIWGQGTTVTVSS VL: EIVLTQSPATLSLSPGERATLSCRASQSVSSYLAWYQQKPGQAPRLLIYDASNRATGIPARFSGSGSGTDFTLTISSLEPEDFAVYYCQQENPRPRTFGGGTKVEIK
	741 fold over negative		anti-TIGIT antibody clone 32931 (antibody, V domains shown, L1/L2/L3 optimised from 31288; human IgG) VH: QLQLQESGPGLVKPSETLSLTCTVSGGSISSGSYYLAWIRQPPGKGLEWIGSIFRSGSTYYNPSLESRVTISVDTSKNQFSLKLSSVTAADTAVYYCAIEGANFKDFGYVAFDIWGQGTTVTVSS VL: EIVMTQSPATLSVSPGERATLSCRASKSVSSNLAWYQQKPGQAPRLLIYFASTRATGIPARFSGSGSGTEFTLTISSLQSEDFAVYYCQQTSPWPRTFGGGTKVEIK
535 fold over negative	166 fold over negative	2.52 fold	anti-TIGIT antibody clone 29520 (antibody, V domains shown, human IgG; Fab for 'Fab KD' columns) VH: QVQLVESGGGLVQPGRSLRLSCAASGFTFRDYAMHWVRQAPGKGLEWVSGITWNSGLIGYADSVKGRFTISRDNAKNSLYLQMNSLRAEDTALYYCAKPVPRLRGLDVWGQGTMVTVSS VL: DIQLTQSPSSVSASVGDRVTITCRASQGISSWLAWYQQKPGKAPKLLIYGASSLQSGVPSRFSGSGSGTDFTLTISSLQPEDFATYYCQQAFYLPWTFGGGTKVEIK
502 fold over negative	150 fold over negative	2.4 fold	anti-TIGIT antibody clone 29523 (antibody, V domains shown, human IgG; Fab for 'Fab KD' columns) VH: EVQLVESGGGVVQPGRSLRLSCAASGFTFGSYYMHWVRQAPGKGLEWVAVIWPDGSNKLYADSVKGRFTISRDNSKNTLYLQMNSLRAEDTALYYCAKPVPKSRALDVWGQGTMVTVSS VL: DIQLTQSPSSVSASVGDRVTITCRASQGISSWLAWYQQKPGKAPKLLIYGASSLQSGVPSRFSGSGSGTDFTLTISSLQPEDFATYYCQQAFYLPWTFGGGTKVEIK
414 fold over negative	142 fold over negative	2.96 fold	anti-TIGIT antibody clone 29527 (antibody, V domains shown, human IgG) VH: QVQLVESGGGVVQPGRSLRLSCAASGFTFSSSYMHWVRQAPGKGLEWVAVIGADGSNKYYADSVEGRFTISRDNSKNTLYLQMNSLRAEDTALYYCAKPVPRRRGLDVWGQGTMVTVSS VL: DIQLTQSPSSVSASVGDRVTITCRASQGISSWLAWYQQKPGKAPKLLIYGASSLQSGVPSRFSGSGSGTDFTLTISSLQPEDFATYYCQQAFYLPWTFGGGTKVEIK
